Kd, koff and kon data for three molecules are collected here from patent US20250145711A1 (Janssen / Centocor, published 2025).

One test deals with T1, recombinant human PSMA (human, UniProt Q04609 44-750).
T1 construct: also called hu PSMA; prostate-specific membrane antigen
The test can be described thus: SPR (Biacore 8K), antibody captured on anti-Fc, PSMA in solution; average of 2. The procedure:
(§1) The binding affinity of anti-PSMA to the recombinant human or cynomolgus PSMA was determined by surface plasmon resonance (SPR) using a Biacore 8K instrument (ELN PSMA-00721). The antibodies were captured on a goat anti-Fc antibody-modified C1 chip and titrated with 3-fold serial dilutions of PSMA antigen spanning concentrations of 100 nM to 3.7 nM (human PSMA) or […] 22.2-600 nM for cyno PSMA. The association and dissociation were monitored for 3 and 60 minutes, respectively, using a flow rate of 50 μL/min. Raw binding data was referenced by subtracting the analyte binding signals from blanks and analyzed using a 1:1 Langmuir binding model by the Biacore Insight evaluation software to obtain the kinetics which were used to calculate the binding affinity. The anti-PSMA were captured using an anti-human Fc antibody and the antigens were injected in solution.
In general terms: Surface plasmon resonance follows binding to a sensor surface in real time, without labels.

Test [1] addresses T2, recombinant cynomolgus PSMA (cynomolgus, UniProt A0A2K5VNZ0 44-750).
T2 construct: also called cy PSMA; cyno PSMA
The test is described as above. The protocol:
as §1

By Kd is commonly meant the free concentration of one partner at which half of the binding sites on the other are occupied at equilibrium, for simple one-to-one binding. One may read the koff as the rate constant with which the complex falls apart. By kon is commonly meant a measure of how fast the partners come together.

T1 sequence (Q04609 44-750 limits assumed): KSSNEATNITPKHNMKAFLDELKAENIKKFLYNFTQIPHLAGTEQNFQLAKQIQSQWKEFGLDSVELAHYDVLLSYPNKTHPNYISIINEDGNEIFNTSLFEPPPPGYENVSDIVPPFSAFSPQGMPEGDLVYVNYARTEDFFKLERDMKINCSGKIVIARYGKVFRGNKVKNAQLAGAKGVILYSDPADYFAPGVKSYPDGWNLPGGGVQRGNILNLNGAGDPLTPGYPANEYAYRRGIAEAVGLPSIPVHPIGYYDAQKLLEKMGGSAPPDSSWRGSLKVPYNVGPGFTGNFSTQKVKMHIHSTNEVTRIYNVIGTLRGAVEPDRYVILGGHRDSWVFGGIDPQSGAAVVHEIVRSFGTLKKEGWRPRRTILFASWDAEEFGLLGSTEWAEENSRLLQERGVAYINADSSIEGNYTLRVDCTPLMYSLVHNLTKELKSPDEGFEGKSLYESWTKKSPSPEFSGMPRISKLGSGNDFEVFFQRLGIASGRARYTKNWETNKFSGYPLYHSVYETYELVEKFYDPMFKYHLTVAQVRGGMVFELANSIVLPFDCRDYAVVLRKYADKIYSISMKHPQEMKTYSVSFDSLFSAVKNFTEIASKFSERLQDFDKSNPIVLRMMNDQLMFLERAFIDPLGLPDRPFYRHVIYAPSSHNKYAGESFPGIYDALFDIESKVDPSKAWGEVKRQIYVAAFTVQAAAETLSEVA

B1: PS3B1508 (bispecific antibody, human IgG1, lambda, L234A L235A)
chain: DIQMTQSPSSLSASVGDRVTITCRARQSIGTAIHWYQQKPGKAPKLLIKYASESISGVPSRFSGSGSGTDFTLTISSLQPEDFATYYCQQSGSWPYTFGQGTKLEIKGGSEGKSSGSGSESKSTGGSEVQLVESGGGLVKPGGSLRLSCAASGFTFSRYNMNWVRQAPGKGLEWVSSISTSSNYIYYADSVKGRFTFSRDNAKNSLDLQMSGLRAEDTAIYYCTRGWGPFDYWGQGTLVTVSSEPKSSDKTHTCPPCPAPEAAGGPSVFLFPPKPKDTLMISRTPEVTCVVVSVSHEDPEVKFNWYVDGVEVHNAKTKPREEQYNSTYRVVSVLTVLHQDWLNGKEYKCKVSNKALPAPIEKTISKAKGQPREPQVYTLPPSREEMTKNQVSLWCLVKGFYPSDIAVEWESNGQPENNYKTTPPVLDSDGSFFLYSKLTVDKSRWQQGNVFSCSVMHEALHNHYTQKSLSLSPGK
heavy: EVQLVESGGGLVQPGGSLRLSCAASGFTFSSYAMSWVRQAPGKGLEWVSAISGGIGSTYYADSVKGRFTISRDNSKNTLWLQMNSLRAEDTAVYYCAKDAVGATPYYFDYWGQGTLVTVSSASTKGPSVFPLAPSSKSTSGGTAALGCLVKDYFPEPVTVSWNSGALTSGVHTFPAVLQSSGLYSLSSVVTVPSSSLGTQTYICNVNHKPSNTKVDKKVEPKSCDKTHTCPPCPAPEAAGGPSVFLFPPKPKDTLMISRTPEVTCVVVSVSHEDPEVKFNWYVDGVEVHNAKTKPREEQYNSTYRVVSVLTVLHQDWLNGKEYKCKVSNKALPAPIEKTISKAKGQPREPQVYTLPPSREEMTKNQVSLSCAVKGFYPSDIAVEWESNGQPENNYKTTPPVLDSDGSFFLVSKLTVDKSRWQQGNVFSCSVMHEALHNRFTQKSLSLSPGK
light: QSVLTQPPSVSAAPGQKVTISCSGSSSNIGINYVSWYQQLPGTAPKLLIYDNNKRPSGIPDRFSGSKSGTSATLGITGLQTGDEADYYCGTWDSSLSAVVFGGGTKLTVLGQPKAAPSVTLFPPSSEELQANKATLVCLISDFYPGAVTVAWKADSSPVKAGVETTTPSKQSNNKYAASSYLSLTPEQWKSHRSYSCQVTHEGSTVEKTVAPTECS
notes: HC1 (Knob3): CD3W245-LH-scFv; HC2 (Hole3-RF) PSMB896-G100A-Fab-RF: IgG1 AAS; LC1 is given as NA; also called PS3B1508.003
In the case of B1, in the test with recombinant human PSMA, the Kd turned out to be 0.382 nM, the koff came to 8.89e-05 s⁻¹ and the kon was 232000 M⁻¹ s⁻¹. In addition, in test [1], the Kd is 2.2 nM, the koff came to 0.00323 s⁻¹ and the kon was 1.46e+06 M⁻¹ s⁻¹.

B2: PS3B1396 (bispecific antibody, human IgG1, lambda, L234A L235A)
chain: EIVLTQSPATLSASPGERVTLSCSASSSVSYMNWYQQKPGQAPRRWIYDSSKLASGVPARFSGSGSGRDYTLTISSLEPEDFAVYYCQQWSRNPPTFGGGTKVEIKGGSEGKSSGSGSESKSTGGSQVQLVQSGAEVKKPGSSVKVSCKASGYTFTRSTMHWVKQAPGQGLEWIGYINPSSAYTNYNQKFQGRVTLTADKSTSTAYMELSSLRSEDTAVYYCASPQVHYDYAGFPYWGQGTLVTVSSEPKSSDKTHTCPPCPAPEAAGGPSVFLFPPKPKDTLMISRTPEVTCVVVSVSHEDPEVKFNWYVDGVEVHNAKTKPREEQYNSTYRVVSVLTVLHQDWLNGKEYKCKVSNKALPAPIEKTISKAKGQPREPQVYTLPPSREEMTKNQVSLWCLVKGFYPSDIAVEWESNGQPENNYKTTPPVLDSDGSFFLYSKLTVDKSRWQQGNVFSCSVMHEALHNHYTQKSLSLSPGK
heavy: EVQLVESGGGLVQPGGSLRLSCAASGFTFSSYAMSWVRQAPGKGLEWVSAISGGIGSTYYADSVKGRFTISRDNSKNTLWLQMNSLRAEDTAVYYCAKDAVGATPYYFDYWGQGTLVTVSSASTKGPSVFPLAPSSKSTSGGTAALGCLVKDYFPEPVTVSWNSGALTSGVHTFPAVLQSSGLYSLSSVVTVPSSSLGTQTYICNVNHKPSNTKVDKKVEPKSCDKTHTCPPCPAPEAAGGPSVFLFPPKPKDTLMISRTPEVTCVVVSVSHEDPEVKFNWYVDGVEVHNAKTKPREEQYNSTYRVVSVLTVLHQDWLNGKEYKCKVSNKALPAPIEKTISKAKGQPREPQVYTLPPSREEMTKNQVSLSCAVKGFYPSDIAVEWESNGQPENNYKTTPPVLDSDGSFFLVSKLTVDKSRWQQGNVFSCSVMHEALHNRFTQKSLSLSPGK
light: QSVLTQPPSVSAAPGQKVTISCSGSSSNIGINYVSWYQQLPGTAPKLLIYDNNKRPSGIPDRFSGSKSGTSATLGITGLQTGDEADYYCGTWDSSLSAVVFGGGTKLTVLGQPKAAPSVTLFPPSSEELQANKATLVCLISDFYPGAVTVAWKADSSPVKAGVETTTPSKQSNNKYAASSYLSLTPEQWKSHRSYSCQVTHEGSTVEKTVAPTECS
notes: HC1 (Knob3): CD3B2030-N106A-scFv LH, HC2 (Hole3): PSMB896-G100A-Fab; LC1 is given as NA; also called PS3B1396.002
For the molecule B2, in the test with recombinant human PSMA, the Kd amounted to 0.395 nM, the koff turned out to be 8.82e-05 s⁻¹ and the kon amounted to 224000 M⁻¹ s⁻¹. In addition, in test [1], the Kd worked out at 5.07 nM, the koff stood at 0.0019 s⁻¹ and the kon was found to be 587000 M⁻¹ s⁻¹.

B3: PS3B1505 (bispecific antibody, human IgG1, lambda, L234A L235A)
heavy 1: QVQLQQSGPRLVRPSQTLSLTCAISGDSVFNNNAAWSWIRQSPSRGLEWLGRTYYRSKWLYDYAVSVKSRITVNPDTSRNQFTLQLNSVTPEDTALYYCARGYSSSFDYWGQGTLVTVSSASTKGPSVFPLAPSSKSTSGGTAALGCLVKDYFPEPVTVSWNSGALTSGVHTFPAVLQSSGLYSLSSVVTVPSSSLGTQTYICNVNHKPSNTKVDKKVEPKSCDKTHTCPPCPAPEAAGGPSVFLFPPKPKDTLMISRTPEVTCVVVSVSHEDPEVKFNWYVDGVEVHNAKTKPREEQYNSTYRVVSVLTVLHQDWLNGKEYKCKVSNKALPAPIEKTISKAKGQPREPQVYTLPPSREEMTKNQVSLTCLVKGFYPSDIAVEWESNGQPENNYKTTPPVLDSDGSFLLYSKLTVDKSRWQQGNVFSCSVMHEALHNHYTQKSLSLSPGK
light 1: QSALTQPASVSGSPGQSITISCTGTSSNIGTYKFVSWYQQHPDKAPKVLLYEVSKRPSGVSSRFSGSKSGNTASLTISGLQAEDQADYHCVSYAGSGTLLFGGGTKLTVLGQPKAAPSVTLFPPSSEELQANKATLVCLISDFYPGAVTVAWKADSSPVKAGVETTTPSKQSNNKYAASSYLSLTPEQWKSHRSYSCQVTHEGSTVEKTVAPTECS
heavy 2: EVQLVESGGGLVQPGGSLRLSCAASGFTFSSYAMSWVRQAPGKGLEWVSAISGGIGSTYYADSVKGRFTISRDNSKNTLWLQMNSLRAEDTAVYYCAKDAVGATPYYFDYWGQGTLVTVSSASTKGPSVFPLAPSSKSTSGGTAALGCLVKDYFPEPVTVSWNSGALTSGVHTFPAVLQSSGLYSLSSVVTVPSSSLGTQTYICNVNHKPSNTKVDKKVEPKSCDKTHTCPPCPAPEAAGGPSVFLFPPKPKDTLMISRTPEVTCVVVSVSHEDPEVKFNWYVDGVEVHNAKTKPREEQYNSTYRVVSVLTVLHQDWLNGKEYKCKVSNKALPAPIEKTISKAKGQPREPQVYTLPPSREEMTKNQVSLTCLVKGFYPSDIAVEWESNGQPENNYKTTPPVLDSDGSFFLYSRLTVDKSRWQQGNVFSCSVMHEALHNHYTQKSLSLSPGK
light 2: QSVLTQPPSVSAAPGQKVTISCSGSSSNIGINYVSWYQQLPGTAPKLLIYDNNKRPSGIPDRFSGSKSGTSATLGITGLQTGDEADYYCGTWDSSLSAVVFGGGTKLTVLGQPKAAPSVTLFPPSSEELQANKATLVCLISDFYPGAVTVAWKADSSPVKAGVETTTPSKQSNNKYAASSYLSLTPEQWKSHRSYSCQVTHEGSTVEKTVAPTECS
notes: HC1 CD3B376-Fab x HC2 PSMB896-G100A IgG1 DuoBody; also called PS3B1505.001
For B3, in the test with recombinant human PSMA, the Kd was determined as 0.393 nM, the koff came out at 9.1e-05 s⁻¹ and the on-rate constant (kon) amounted to 232000 M⁻¹ s⁻¹. In test [1], the Kd amounted to 5.01 nM, the koff worked out at 0.00124 s⁻¹ and the kon is 429000 M⁻¹ s⁻¹.
